B1: FUT8 (parent)
chain: NWRYATGGWETVFRPVSETCTDRS

Variants of: B1
Test: protein stability index of a GFP-peptide fusion (GPS, HEK-293T) (PSI 1-6); higher = more stable
Details: c terminus: a fixed tail appended
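Further: lentivirally expressed fusions sorted by FACS into six bins by GFP to DsRed ratio, PSI derived from sequencing read proportions per bin multiplied by bin number.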

Variant	protein stability index
NWRYRTGGWETVFRPVSETCTDRS	2.28
NWRYWTGGWETVFRPVSETCTDRS	3.33
NWRYYTGGWETVFRPVSETCTDRS	2.94
NWRYCTGGWETVFRPVSETCTDRS	1.05
NWRYTTGGWETVFRPVSETCTDRS	2.33
NWRYITGGWETVFRPVSETCTDRS	1.39
NWRYDTGGWETVFRPVSETCTDRS	3.2
NWRYNTGGWETVFRPVSETCTDRS	2.95
NWRYKTGGWETVFRPVSETCTDRS	3.36
NWRYPTGGWETVFRPVSETCTDRS	1.48
NWRYSTGGWETVFRPVSETCTDRS	2.36
NWRYQTGGWETVFRPVSETCTDRS	2.91
NWRYETGGWETVFRPVSETCTDRS	2.82
NWRYHTGGWETVFRPVSETCTDRS	3.69
NWRYLTGGWETVFRPVSETCTDRS	2.66
NWRYMTGGWETVFRPVSETCTDRS	3.05
NWRYFTGGWETVFRPVSETCTDRS	2.43
NWRYATGGYETVFRPVSETCTDRS	2.32
NWRYATGGKETVFRPVSETCTDRS	2.06
NWRYATGGVETVFRPVSETCTDRS	2.31
NWRYATGGQETVFRPVSETCTDRS	2.03
NWRYATGGSETVFRPVSETCTDRS	2.03
NWRYATGGLETVFRPVSETCTDRS	2.29
NWRYATGGEETVFRPVSETCTDRS	2.79

Variant	protein stability index
NWRYATGGHETVFRPVSETCTDRS	2.73
NWRYATGGIETVFRPVSETCTDRS	2.22
NWRYATGGRETVFRPVSETCTDRS	1.88
NWRYATGGPETVFRPVSETCTDRS	2.95
NWRYATGGTETVFRPVSETCTDRS	1.55
NWRYATGGMETVFRPVSETCTDRS	1.72
NWRYATGGGETVFRPVSETCTDRS	1.96
NWRYATGGNETVFRPVSETCTDRS	2.27
NWRYATGGDETVFRPVSETCTDRS	2.33
NWRYATGGFETVFRPVSETCTDRS	1.41
NWRYATGGWETAFRPVSETCTDRS	2.46
NWRYATGGWETFFRPVSETCTDRS	1.45
NWRYATGGWETQFRPVSETCTDRS	2.56
NWRYATGGWETTFRPVSETCTDRS	1.69
NWRYATGGWETEFRPVSETCTDRS	2.23
NWRYATGGWETYFRPVSETCTDRS	2.73
NWRYATGGWETWFRPVSETCTDRS	1.26
NWRYATGGWETGFRPVSETCTDRS	1.09
NWRYATGGWETMFRPVSETCTDRS	2.48
NWRYATGGWETRFRPVSETCTDRS	2.08
NWRYATGGWETKFRPVSETCTDRS	3.27
NWRYATGGWETIFRPVSETCTDRS	2.57
NWRYATGGWETCFRPVSETCTDRS	2
NWRYATGGWETSFRPVSETCTDRS	1.97

Variant	protein stability index
NWRYATGGWETPFRPVSETCTDRS	2.85
NWRYATGGWETNFRPVSETCTDRS	1.97
NWRYATGGWETHFRPVSETCTDRS	2.23
NWRYATGGWETVWRPVSETCTDRS	3.09
NWRYATGGWETVHRPVSETCTDRS	2.99
NWRYATGGWETVQRPVSETCTDRS	2.52
NWRYATGGWETVERPVSETCTDRS	3.2
NWRYATGGWETVKRPVSETCTDRS	3
NWRYATGGWETVARPVSETCTDRS	3.91
NWRYATGGWETVTRPVSETCTDRS	2.28
NWRYATGGWETVLRPVSETCTDRS	2.28
NWRYATGGWETVDRPVSETCTDRS	3.66
NWRYATGGWETVIRPVSETCTDRS	1.66
NWRYATGGWETVYRPVSETCTDRS	1.55
NWRYATGGWETVPRPVSETCTDRS	3.54
NWRYATGGWETVMRPVSETCTDRS	2.28
NWRYATGGWETVCRPVSETCTDRS	2.15
NWRYATGGWETVNRPVSETCTDRS	2.78
NWRYATGGWETVRRPVSETCTDRS	2.69
NWRYATGGWETVVRPVSETCTDRS	1.64
NWYYATGGWETVFRPVSETCTDRS	1.76
NWWYATGGWETVFRPVSETCTDRS	2.46
NWQYATGGWETVFRPVSETCTDRS	3.15
NWNYATGGWETVFRPVSETCTDRS	3.83

Variant	protein stability index
NWPYATGGWETVFRPVSETCTDRS	3.06
NWVYATGGWETVFRPVSETCTDRS	2.85
NWSYATGGWETVFRPVSETCTDRS	2.69
NWTYATGGWETVFRPVSETCTDRS	3.09
NWHYATGGWETVFRPVSETCTDRS	2.85
NWLYATGGWETVFRPVSETCTDRS	2.69
NWMYATGGWETVFRPVSETCTDRS	2.44
NWIYATGGWETVFRPVSETCTDRS	2.32
NWRYATGGWEYVFRPVSETCTDRS	4.5
NWRYATGGWEDVFRPVSETCTDRS	2.2
NWRYATGGWEQVFRPVSETCTDRS	2.15
NWRYATGGWEPVFRPVSETCTDRS	2
NWRYATGGWEFVFRPVSETCTDRS	1.48
NWRYATGGWELVFRPVSETCTDRS	2.12
NWRYATGGWEVVFRPVSETCTDRS	2.12
NWRYATGGWEWVFRPVSETCTDRS	1.98
NWRYATGGWECVFRPVSETCTDRS	1.78
NWRYATGGWEKVFRPVSETCTDRS	1.68
NWRYATGGWERVFRPVSETCTDRS	3.69
NWRYATGGWEHVFRPVSETCTDRS	1.69
NWRYATGGWEIVFRPVSETCTDRS	3.25
NWRYATGGWEEVFRPVSETCTDRS	2.86
NWRYATGGWENVFRPVSETCTDRS	1.9
NWRYATGGWEGVFRPVSETCTDRS	1.97

Variant	protein stability index
NWRYATGGWETVFDPVSETCTDRS	2.4
NWRYATGGWETVFFPVSETCTDRS	1.29
NWRYATGGWETVFMPVSETCTDRS	1.7
NWRYATGGWETVFCPVSETCTDRS	3.72
NWRYATGGWETVFGPVSETCTDRS	1.57
NWRYATGGWETVFKPVSETCTDRS	1.7
NWRYATGGWETVFEPVSETCTDRS	1.83
NWRYATGGWETVFNPVSETCTDRS	3.41
NWRYATGGWETVFHPVSETCTDRS	1.12
NWRYATGGWETVFIPVSETCTDRS	2.66
NWRYAKGGWETVFRPVSETCTDRS	1.1
NWRYAEGGWETVFRPVSETCTDRS	2.25
NWRYANGGWETVFRPVSETCTDRS	1.48
NWRYAHGGWETVFRPVSETCTDRS	1.28
NWRYAQGGWETVFRPVSETCTDRS	1.6
NWRYADGGWETVFRPVSETCTDRS	2.72
NWRYALGGWETVFRPVSETCTDRS	1.73
NWRYAYGGWETVFRPVSETCTDRS	1.96
NWRYARGGWETVFRPVSETCTDRS	1.51
NWRYAIGGWETVFRPVSETCTDRS	2.63
NWRYAPGGWETVFRPVSETCTDRS	2.44
NWRYAWGGWETVFRPVSETCTDRS	1.65
NWRYAMGGWETVFRPVSETCTDRS	1.74
NWRYAVGGWETVFRPVSETCTDRS	2.11

Variant	protein stability index
NWRYASGGWETVFRPVSETCTDRS	1
NWRYATGGWFTVFRPVSETCTDRS	3.97
NWRYATGGWVTVFRPVSETCTDRS	1.02
NWRYATGGWRTVFRPVSETCTDRS	2.49
NWRYATGGWYTVFRPVSETCTDRS	2.52
NWRYATGGWPTVFRPVSETCTDRS	1.18
NWRYATGGWQTVFRPVSETCTDRS	1.2
NWRYATGGWHTVFRPVSETCTDRS	2.21
NWRYATGGWSTVFRPVSETCTDRS	1.86
NWRYATGGWMTVFRPVSETCTDRS	1.73
NWRYATGGWKTVFRPVSETCTDRS	3.86
NWRYATGGWTTVFRPVSETCTDRS	1.63
NWRYATGGWNTVFRPVSETCTDRS	1.86
NWRYATGGWITVFRPVSETCTDRS	3.19
NWRYATGGWDTVFRPVSETCTDRS	1.8
NWRYATSGWETVFRPVSETCTDRS	1.97
NWRYATRGWETVFRPVSETCTDRS	1.75
NWRYATTGWETVFRPVSETCTDRS	2.12
NWRYATAGWETVFRPVSETCTDRS	2.94
NWRYATCGWETVFRPVSETCTDRS	2.08
NWRYATMGWETVFRPVSETCTDRS	1.81
NWRYATPGWETVFRPVSETCTDRS	2.19
NWRYATEGWETVFRPVSETCTDRS	3.17
NWRYATQGWETVFRPVSETCTDRS	2.49

Variant	protein stability index
NWRYATYGWETVFRPVSETCTDRS	2.12
NWRYATNGWETVFRPVSETCTDRS	2.13
NWRYATLGWETVFRPVSETCTDRS	1.89
NWRYATFGWETVFRPVSETCTDRS	2.64
NWRYATKGWETVFRPVSETCTDRS	2.39
NWRYATIGWETVFRPVSETCTDRS	2.11
NWRYATHGWETVFRPVSETCTDRS	2.22
NWRYATWGWETVFRPVSETCTDRS	1.59
NWRYATGLWETVFRPVSETCTDRS	1.82
NWRYATGSWETVFRPVSETCTDRS	2.4
NWRYATGKWETVFRPVSETCTDRS	3.73
NWRYATGPWETVFRPVSETCTDRS	1.74
NWRYATGFWETVFRPVSETCTDRS	1.53
NWRYATGAWETVFRPVSETCTDRS	1.84
NWRYATGQWETVFRPVSETCTDRS	1.98
NWRYATGMWETVFRPVSETCTDRS	2.01
NWRYATGHWETVFRPVSETCTDRS	2.43
NWRYATGDWETVFRPVSETCTDRS	2.9
NWRYATGCWETVFRPVSETCTDRS	1.55
NWRYATGTWETVFRPVSETCTDRS	2.47
NWRYATGYWETVFRPVSETCTDRS	1.89
NWRYATGEWETVFRPVSETCTDRS	2.22
NWRYATGIWETVFRPVSETCTDRS	1.48
NWRYATGWWETVFRPVSETCTDRS	2.51

Variant	protein stability index
NWRYATGRWETVFRPVSETCTDRS	1.41
NWRYATGNWETVFRPVSETCTDRS	2.26
NWRSATGGWETVFRPVSETCTDRS	3.66
NWRRATGGWETVFRPVSETCTDRS	3.07
NWRNATGGWETVFRPVSETCTDRS	3.32
NWRPATGGWETVFRPVSETCTDRS	3.85
NWRGATGGWETVFRPVSETCTDRS	4.34
NWRVATGGWETVFRPVSETCTDRS	3.42
NWRWATGGWETVFRPVSETCTDRS	2.98
NWRLATGGWETVFRPVSETCTDRS	2.36
NWRQATGGWETVFRPVSETCTDRS	3.35
NWRAATGGWETVFRPVSETCTDRS	3.42
NWRFATGGWETVFRPVSETCTDRS	2.45
NWRHATGGWETVFRPVSETCTDRS	3.39
NWRDATGGWETVFRPVSETCTDRS	3.13
NWRCATGGWETVFRPVSETCTDRS	2.6
NWRIATGGWETVFRPVSETCTDRS	2.63
NWRMATGGWETVFRPVSETCTDRS	2.16
NWRTATGGWETVFRPVSETCTDRS	3.27
NWREATGGWETVFRPVSETCTDRS	4.67
